Experiment: yeast display, Sf9 membrane polyspecificity reagent, FACS + sequencing; frameworks hold sequencing errors
Summary of the method: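 In a synthetic yeast display library (Saccharomyces cerevisiae BJ5465), nanobody expression was induced with galactose for 36–48 hours. FACS gates were set low and high (top ~1%) using anti-HA fluorescence for expression and streptavidin fluorescence for binding of the Sf9 membrane reagent. Each polyreactivity label is drawn from the gate of origin.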

| Sequence | polyreactivity (PSR sort gate) |
| --- | --- |
| QVQLVESGGGLVQAGGSLRLSCAASGFIFTIYAMGWYRQAPGKERELVAAITWNGGRTYYADSVKGRFTISRDNAKNTVDLQMNSLKPEDTAVYYCAARYGRAYDYWGQGSQVTVSS | high polyreactivity |
| QVQLEESGRGLVQAGGSLRLSCAASGSTSGIYAMGWYRQAPGKERELVAAITWSGGSTNYADSVKGRFTISRDNAKNTVYLQMNSLKPVDTAVYYCAAEFYSYKYPDFDYWGQGTQVTVSS | low polyreactivity |
| QVQLVESGGGLVQAGGSLRLSCAASGSIFTRNTMGWYRQAPGKDRELVAAITWIGGRTYYADSVKGRFTISRDNAKNTVYLQMNSLKPEDTAVYYCAARSDPYWWQKYYYWGQGTQVTVSS | high polyreactivity |
| QVQLVESGGGLVQAGGSLRLSCAASGSIFLYNAMGWYRQAPGKERELVAAIRGSDGITFYADSVKGRFTISRDNAKNTVYLQMNSLKPEDTAVYYCAKDTYRSPRHDYGYWGQGTQVTVSS | low polyreactivity |
| QVHLVESGGCLLQAGGSLRLSCAASGSIFIINAMGWYRQAPGKERELVAAINNGVNTYYADSVKVRFTISRDNAKNTVYLQKNSLKPEDTAVYYCAADPYFYYYGYDYWGQGTQVTVSS | low polyreactivity |
| QVQLVESGGGLVQAGGSLRLSCAASGLIIWLYTMGWYRQAPGKERELVAAIDWSGGSTYYADSVKGRFTISRDNAKNTDYLQMNSLKPEDTAVYYCAADPEPSYRFDYCGQGTQVTVSS | low polyreactivity |
| QVQLVESGGGLVQAGGSLRLSCAASGFTFRDYAMGWYRQAPGKEREFFADITFSGDNTRYADSVKGRFTISRDNAQNTVYLQMNSLKPEDTAVYYCNADRVVGPYDGYDYWGQGTQVTVSS | low polyreactivity |
| QVQLVESGGGLVQAGGSLRLSCAASGSIFDPNAMGWYRQAPGKERELVAAINSGGSTDYADSVKGRFTISRDNAKNTVYLQMNSLKPEDTAVYYCNAEYGYSGVGDDYWGQGTQVTVSS | low polyreactivity |
| QVQLVESGGGLVQAGGSLRLSCASSGRTSLNYAMGWYRQAPGKDRELVAAITSGGGGTYYADSVKGRFTISRDNAKNTVYLQMYRLKPEVTALYYCGAKFPARRKLSKVGFDYWGQGTQVSVSS | high polyreactivity |
| QVQLVESGGGLVQARGSLRLSCAASGSTFQYTMGCYRQAPRTERELVAAITSTGGSTYYADSVKGRFTISRDNAKNTVYLQRNSLKAEDTAVYYWNADYFGGGDYWGQGTQVTVSS | low polyreactivity |
| QVQLVESGGGLVQAGGSLRLSCAASGITFKGYTMGWYRQAPGKEREFVAAISWGGGRTYYADSVKGRFTISRDNAKNTVYLQMNSLKPEDTAVYYCNGAPYTRALQGEFDYWGQGTQVTVSS | high polyreactivity |
| QVEHVESGGALGQAGGSLRLSCAASGITFAPYAMGWYREAPGKETEFDAGINTGGSKYYADSVKGRFTISRDNAKNTFYVQMNSLKPEDTAVYFCATESYPADQDIPGSDYWGQGTQVTVSS | low polyreactivity |
| QVQLVESGGGLVQAGGSLRLSCAASGSTFTRYAMGWYRQAPGKERELVAAISSSAGRTYYADSVKGRFTISRDYAKNTVYLQMKSLKPEDTAVYYCAATRVYAGAQYDYWGQGTKVTVSS | high polyreactivity |
| QVQLVESGGGLDQAGGSLRLSCAASGRTFLVYAMGWYRQAPGKERELVAAISRSGGSTYYADSVMRRFTISRDNAKNNVYLQMNSLIPEDTAVYYCAAKKTGRYYWGQGTEVTVSS | high polyreactivity |
| QVQLVESGGGLVQARGSLRLICAASGFTFYRYVMGWYRQAPGKVRELVAAITGRGGSTYYADSVKGRFTISRDNAKNTVYLQMNSRKPEDTAVYYCAARYVTGTLYLAPYEYWGQGTQVTLSS | low polyreactivity |
| KVQLVESGGGLVQAGGSLRLSCAASGIIFNLYAMGWSRQAPGKERELVAAITSSGTSTYYADSVKGRFTISRDNAKNTLYLQMNSLKPEDTAVYYCAADRGFYYFVEYDYWGQGTQVTVSS | high polyreactivity |
| QVQLVESGGGLVQAGGSLRLSCAASGITFWYYAMGWYRQAPGKERELVAVISRGGSTYYADSVKGRFTISRDNAKNTVYLQMNSLKPEDTAVYYCAARQRWYTYTRQEYDYWGQGTQVTVSS | high polyreactivity |
| QVQLVESGGGLVQAGGSLRLSCAASGRIFEINAMGWYRQAPGKERELVAAITRSGGSTYYADSVKGRFTISRDNAKNTVYLQMNSLKPEDTAVYYCAARGRYWYSRYYSWGQGTQVTVSS | high polyreactivity |
| QVQLVESGGGLVQAGGSLRLSCAASGSTFYWNALGWYRQAPGKERELVADIDGRGGSTYYADSVKGRFTISRDNAKNTVYLQMNSLKPEDTAVYYCAARAPFLSVPSELDYWGQGTQVTVSS | low polyreactivity |
| QVQLVESGGGIVQAGGSLRLSCAASGRTFYGNAMGWYIQEPGKERELVAGISQNGGSTYYADSVKGRFTSSRDTAKNTVYLQMNRLKPEDSAVYYCAADSYYFTGYWAHPYDYWGEGTQVTVSS | high polyreactivity |
| QVQLVESCGGLVQAGGSLRLSCAASGSTFLVNAMGWYRPAPGKERELVAASSRGGGSTYYADSVKGRFTISRDKAKNTVYLQMNSLKPEDTAVYYCNARKWTIYGAHYYWGQGTQVTVSS | high polyreactivity |
| QVQLVESGGGLVQAGGSLRLSCAASGRIFIRNTMVWYRQAPGKERELVADISWRGGSTYYADSVKGRFTISRDNAKNTVYLEMNSLKPEDTAVYYSAAVVRSPAYDYWGQGTQVTVSS | high polyreactivity |

| Sequence | polyreactivity (PSR sort gate) |
| --- | --- |
| QVQIVESGGGLVQAGGSLRLRCAASGRIFAYYAMGWYRQAPGKERELVAAISRSGVSTYYADSVKGRFTISRDNAKNTVYLQMNSLKPEDTAVYYCAARWRSGFTSGDYWGQGTQVTVSS | low polyreactivity |
| QVQLVESGGGLVQAGGSLRLSCAASGFTLYYYDKGWYRQSPGKERELVAAISYSGGTTYYADSVKGRFTISRDNAKNTVYLQMNSLNPDDTAVYYCAAEVGGYWADEYLGYDYWGLGTQVTVSS | low polyreactivity |
| QVQLVESGGGLVQAGGSLRLSCAASGRTFWDYGMGWYRQAPGKERELVPTISGNGGDTYYADSVKGRFTISRDNAKNTVYLQMNSLKPEDTAVYFCAADYRFYRTDRHYDYWGQGTQVTVSS | low polyreactivity |
| QVQLVESGGGLVQAGGSLRLICAASGLTFGDYTMGWYRQAPGKERELVAAISTSGGSTYYADSVKGRFTISRDNAKKTVYLLMNSLKPEDTAVYYCNARRTHTRSHYYYWGQGTQVTVSS | high polyreactivity |
| QVQLVETGGGLVQAGGSLRLSCAASGSTFRYYAMGWYRQAPGTERELVAGISSNGGRTYYADSVKWRFTISRDNAKNTVYLQMNILKPEDTAVYYCNAGPYSRLYGDRDYDYWGQGTQVTVSS | high polyreactivity |
| QVQLVESGGGLVQAGGSLRLSCAASGRIFVLYAMGWYRHSPGKERELVAAINWSGGSTFYADSVKGRFTISRDNAKNTVYLQMNSLKPEDTAVYYCNARGLRVKYDYWGQGTQVTVSS | high polyreactivity |
| QVQLVESGGGLVQAGGSLRLSCASSVYIFVSNTKGWYRPAPGKERELVAAISWSGGSTNYADSVKGRFTISRDKAKNTVYLLMNSLKPEDTAVYYCNADDASHYYFRDDYWGQGTQVTVSS | low polyreactivity |
| QDQLVESGGGLVQAGGSLRLSCAASGSIFAGYAMGWYRQAPGKESELVAAITSGGRTYYADSVKGRFTISRDNAKNTVYLQMNSLKPEDTAVYYCAKRWYTKTGYDYWGQGTQVTVSS | high polyreactivity |
| PVQLVESGGGLVQAGGSLRLSCAASGFTLYDYAMGWYRPAPGKERELVAAISRSGGRTYYADSVKGRFTISRDNAKNTVYLQMNSLKPEDTAVYYCAADILRGQWYEYDYWGQGTQVTVSS | high polyreactivity |
| QVQLVESGGGLVQAGGSLRLSFAASGYIFYPNVMGWYRQAPGKERELVADISSGGSTNYADSVKGRFTISRDNAKNTVYLQINSLKPEDTAVYYCAKGPRLYFTRDKAHWKYDYWGQGTQVTVSS | low polyreactivity |
| QVQLVESGGGLLQAGGSLRLSCAASGRTFGYYAMGWYRQAPGKERELVAAISKSGGRTYYADSVKGRFTISRDNAKNTVYLQMNSLKPEDTAVYYCAADGGAIVPYYENYYWGQGTQVTVSS | high polyreactivity |
| QVHLVESGGGLVQAGGSLRLSSAASGRIFPWNAMGWYRQAPGKERELVAAISFSAGRTYYADSVKGRFTISRDNAKNTVYLQMNSLKPEDTAVYYCNARIGSRGVWTGIIGYEYWGQGTQVTVSS | low polyreactivity |
| QVQLVESGGGLVQAGGSLRLSCAASGSTIYRNAMVWYRQAPGKERELVAAISKSGGSTYYADTVKGRFTISRDNAKNTVYLQMNSQKPEDTAVYYCNSRYWVTTGGYWGQGTQVTVSS | high polyreactivity |
| QVKLLESGGGLVQAGGSLRLTCAASGFIFRRYTMGWYRHAPGEEREWVAAISITGSRTYYADSVKGRFTISPDNAKNNVYLQMNSLKPEDTAVYYCAADPDKSSAGDFDYWGHGTQVTVSS | high polyreactivity |
| QVQLVESGGGLVQAGGSLRLSCAASGITFVRNAMGWYRQAPGKERELVAAISSGGSTYYADSVKGRFTISRDNAKNTVYLQINSLKPEDTAVYYCNAQIYGRQYRYRWHYYWGQGTQVTVSS | high polyreactivity |
| QVQLVESGGGLVQAGGSLRLSCAASGIIFYRYAMGWYRQAPGKERELVAVISRSGCSTYYADSVKGRFTISRDNAKNTVYLQMNSLKPEDTAVYYSAAGRRYDGTRHDYWGQGTQVTVSS | high polyreactivity |
| QVQLVESGGGLVHAGGSLRLSCAASGFIFNFYAMGWYRQAPGKERELVAAISRTGGSTYYADSVKGRFTISRDNAKNTVYLQMNSLKPEDTAVYYCNAGCGFRSYGYDPWGQGTQVTVSS | high polyreactivity |
| QVQLVESGGGLVQAGGSLRLSCAASGLIFSLYAMGWSRQAPGKDRELVADITVDGDGSTYYADSVKGRFTISRDIAKNTVYLQMNSLIPEDTAVYYCAADAYFGWYYYWGQGTQVTVSS | high polyreactivity |
| QVQLVESGGGLVQAGGSLRLSCAASGSIFSPNAMGWYRQAPGKERQLVAAIRSGGSTYYADSVKGRFTISRDNAKNSVYLQMNSLKPADTAVYYCAADTYTYYYYLARYYYWGQGTQVTVSS | low polyreactivity |
| QVQLVESGGGLVQAGGSLRLSCAASGRIFRPNAMGWYRPAPGKERELVAAISYSGATTYYADSVKGRFTISRDNAKNTVYLQMNSLKPEVTAVYYCAAGGTSGQEFGYWGQGTQVTVSS | low polyreactivity |
| QVQLVESGGGLVQAGGSLRLSCAASGRIFVINAMGWYRQAPGKERELVAAISSSGGSTSYADSVKGRFTISRDNAKNTVYLQMNSLKPEDTAVYYCAAKPRVRRVDGYYWGQGSQVTVSS | high polyreactivity |
